Measured values published in patent US9533026B2, “Polypeptide compounds for inhibiting angiogenesis and tumor growth” (VasGene Therapeutics, Inc., priority 2004, dated 2017).
“Also recorded” adds a separate entry of the source.

What was measured:
[1] = system: human endothelial cells; test: Endothelial cell chemotaxis / migration (Boyden chamber); format: cell-based; conditions: for chemotaxis of human endothelial cells: umbilical cord and hepatic AECs or VECs, growth factor stimuli
Description: Migration is assessed using the 48-well Boyden chamber and 8 μm pore size collagen-coated (10 μg/ml rat tail collagen; Collaborative Laboratories) polycarbonate filters (Osmonics, Inc.). The bottom chamber wells receive 27-29 μl of DMEM medium alone (baseline) or medium containing chemo-attractant (bFGF, VEGF or Swiss 3T3 cell conditioned medium). The top chambers receive 45 μl of HUVEC cell suspension (1×10^6 cells/ml) prepared in DMEM+1% BSA with or without test compound. After 5 h incubation at 37° C., the membrane is rinsed in PBS, fixed and stained in Diff-Quick solutions. The filter is placed on a glass slide with the migrated cells facing down and cells on top are removed using a Kimwipe. The testing is performed in 4-6 replicates and five fields are counted from each well. Negative unstimulated control values are subtracted from stimulated control and drug treated values and data is plotted as mean migrated cell±S.D. IC50 is calculated from the plotted data.
Chemotaxis of HUVECs to VEGF was assessed using a modified Boyden chamber, transwell membrane filter inserts in 24 well plates, 6.5 mm diam, 8 μm pore size, 10 μm thick matrigel coated, polycarbonate membranes (BD Biosciences). The cell suspensions of HUVECs (2×10^5 cells/ml) in 200 μl of EBM were seeded in the upper chamber and the soluble EphB4 protein were added simultaneously with stimulant (VEGF or bFGF) to the lower compartment of the chamber and their migration across a polycarbonate filter in response to 10-20 ng/ml of VEGF with or without 100 nM-1 μM test compound was investigated. After incubation for 4-24 h at 37° C., the upper surface of the filter was scraped with swab and filters were fixed and stained with Diff Quick. Ten random fields at 200× mag were counted and the results expressed as mean # per field. Negative unstimulated control values were subtracted from stimulated control and protein treated sample values and the data was plotted as mean migrated cell±S.D. IC50 was calculated from the plotted data.

[2] = system: SCC15 tumors; test: SCC15 tumor growth and histology in nude mice, soluble EphB4; format: in vivo, mouse; conditions: for SCC15 tumor growth: Balb/C nu/nu mice
Description: The same model was used to determine the effects of soluble EphB4 in vivo. SCC15 tumors implanted subcutaneously, pre-incubated with matrigel and with or w/o growth factors, as well as implanted sc alone, and mice treated sc or ip daily with 1-5 μg of soluble EphB4 were carried out.
Subcutaneously inject logarithmically growing SCC15, head and neck squamous cell carcinoma cell line, at 5×10^6 cell density; with or without EphB4 ECD in the presence or absence of human bFGF, into athymic Balb/c nude mice, along with Matrigel (BD Bioscience) synthetic basement membrane (1:1 v/v), and examine tumors within 2 weeks. […] There was no difference in body weight between the groups. Immunohistochemical examination of cross-sections of resected tumors and TUNEL-positive apoptosis or necrosis, CD34 immunostaining, and BrdU proliferation rate will be performed, after deparaffinized, rehydrated, and quenched for endogenous peroxidase activity, and after 10 min permeabilization with proteinase K. Quantitative assessment of vascular densities will also be performed. Local intratumoral delivery or IV delivery of EphB4 ECD will also be performed twice a week.
30 athymic nude mice, BALB/c (nu/nu), were each injected with 1×10^6 B16 melanoma cells with 0.1 ml PBS mixed with 0.1 ml matrigel or 1.5×10^6 SCC15 cells resuspended in 200 μl of DMEM serum-free medium and injected subcutaneously on day 0 on the right shoulder region of mice. Proteins were injected intravenously or subcutaneously, around the tumor beginning on day 1 at a loading dose of 4 μg/mg, with weekly injections of 2 ug/mg. (10 μg/g, 50 μg/kg/day), and at 2 weeks post-inoculation. Mice are sacrificed on Day 14. Control mice received PBS 50 μl each day.
All animals were treated under protocols approved by the institutional animal care committees. Cancer cells (5×10^6) were subcutaneously inoculated into the dorsal skin of nude mice. When the tumor had grown to a size of about 100 mm^3 (usually it took 1[…]2 days), sEphB4 was either intraperitoneally or subcutaneously injected once/day, and tumorigenesis was monitored for 2 weeks. Tumor volume was calculated according to the formula a^2xb, where a and b are the smallest and largest diameters, respectively. A Student's t test was used to compare tumor volumes, with P<0.05 being considered significant.
Tumors were fixed in 4% formaldehyde, embedded in paraffin, sectioned by 5 μm, and stained with hematoxylin[…]eosin. Vessel density was semi-quantitated using a computer-based image analyzer (five fields per section from three mice in each group).

[3] = system: bFGF-induced corneal neovascularization; test: Mouse corneal micropocket assay; format: in vivo; conditions: mouse cornea, day 7 of implantation
From the text: To further investigate the antiangiogenic activity of soluble EphB4 in vivo, we studied the inhibitory effect of administration of soluble EphB4 on neovascularization in the mouse cornea induced by bFGF. Hydron Pellets implanted into corneal micropocket could induce angiogenesis, in the presence of growth factors, in a typically avascular area. The angiogenesis response in mice cornea was moderate, the appearance of vascular buds was delayed and the new capillaries were sparse and grew slowly.
Mouse corneal micropocket assay was performed according to that detailed by Kenyon et al., 1996. Briefly, hydron pellets (polyhydroxyethylmethacrylate [polyHEMA], Interferon Sciences, New Brunswick, N.J., U.S.A.) containing either 90 ng of bFGF (R&D) or 180 ng of VEGF (R&D Systems, Minneapolis, Minn., U.S.A.) and 40 μg of sucrose aluminium sulfate (Sigma) were prepared. Using an operating microscope, a stromal linear keratotomy was made with a surgical blade (Bard-Parker no. 15) parallel to the insertion of the lateral rectus muscle in an anesthetized animal. An intrastromal micropocket was dissected using a modified von Graefe knife (2^••30 mm). […] The difference in pellet location for each growth factor was determined to be necessary given the relatively weaker angiogenic stimulation of VEGF in this model. […]

Molecule | chemotaxis of human endothelial cells [1] | chemotaxis of human endothelial cells ([1]; listed as EphB4v3) | SCC15 tumor growth [2] | corneal neovascularization induced by bFGF [3] | bFGF and VEGF-induced migration ([1]; HUV/AEC, Boyden chamber, dose-dependent) | tumor angiogenesis ([2]; SCC15, premixed with Matrigel plus growth factors, 10 to 14 days, FITC-lectin) | Tumor volumes versus vehicle groups ([2]; co-injected with Matrigel, presence and absence of growth factor, within 2 weeks) | Fibrin deposition in and around blood vessels ([2]; inner viable rim and central necrotic core, Masson's Trichrome) | effects on the endothelium in normal tissues ([2]; lungs, liver and kidneys) | Necrosis, percentage of tumor section area ([2]; treated vs control, p<0.02) | body weight ([2]; tumor-bearing mice) | tolerability in vivo ([2]; tumor-bearing mice, general well-being) | body weight ([2]; tumor-bearing mice, listed as EphB4 ECD)
B4ECv3: soluble extracellular domain derivative of human EphB4, SEQ ID NO:1 (protein, Recombinant B4ECv3 protein) MELRVLLCWASLAAALEETLLNTKLETADLKWVTFPQVDGQWEELSGLDEEQHSVRTYEVCEVQRAPGQAHWLRTGWVPRRGAVHVYATLRFTMLECLSLPRAGRSCKETFTVFYYESDADTATALTPAWMENPYIKVDTVAAEHLTRKRPGAEATGKVNVKTLRLGPLSKAGFYLAFQDQGACMALLSLHLFYKKCAQLTVNLTRFPETVPRELVVPVAGSCVVDAVPAPGPSPSLYCREDGQWAEQPVTGCSCAPGFEAAEGNTKCRACAQGTFKPLSGEGSCQPCPANSHSNTIGSAVCQCRVGYFRARTDPRGAPCTTPPSAPRSVVSRLNGSSLHLEWSAPLESGGREDLTYALRCRECRPGGSCAPCGGDLTFDPGPRDLVEPWVVVRGLRPDFTYTFEVTALNGVSSLATGPVPFEPVNVTTDREVPPAVSDIRVTRSSPSSLSLAWAVPRAPSGAWLDYEVKYHEKGAEGPSSVRFLKTSENRAELRGLKRGASYLVQVRARSEAGYGPFGQEHHSQTQLDESEGWREQGSKRAILQIEGKPIPNPLLGLDSTRTGHHHHHH | blocked chemotaxis | inhibits chemotaxis | inhibits | inhibits |  |  |  |  |  |  |  |  | 
soluble EphB4: soluble EphB4 extracellular domain protein; exact construct not stated at the results (protein) LEETLLNTKLETADLKWVTFPQVDGQWEELSGLDEEQHSVRTYEVCDVQRAPGQAHWLRTGWVPRRGAVHVYATLRFTMLECLSLPRAGRSCKETFTVFYYESDADTATALTPAWMENPYIKVDTVAAEHLTRKRPGAEATGKVNVKTLRLGPLSKAGFYLAFQDQGACMALLSLHLFYKKCAQLTVNLTRFPETVPRELVVPVAGSCVVDAVPAPGPSPSLYCREDGQWAEQPVTGCSCAPGFEAAEGNTKCRACAQGTFKPLSGEGSCQPCPANSHSNTIGSAVCQCRVGYFRARTDPRGAPCTTPPSAPRSVVSRLNGSSLHLEWSAPLESGGREDLTYALRCRECRPGGSCAPCGGDLTFDPGPRDLVEPWVVVRGLRPDFTYTFEVTALNGVSSLATGPVPFEPVNVTTDREVPPAVSDIRVTRSSPSSLSLAWAVPRAPSGAVLDYEVKYHEKGAEGPSSVRFLKTSENRAELRGLKRGASYLVQVRARSEAGYGPFGQEHHSQTQLDESEGWREQLA |  |  | inhibits; also recorded: reduced growth rate | markedly inhibited | significantly inhibited | marked inhibition | three-fold smaller | increased | no such effects | more extensive | no significant effect | well tolerated | no difference
